The target in assay [1] is T1, adiponectin (Homo sapiens, UniProt Q15848).
T1 construct: purchased R&D Systems
T1 sequence (Q15848 19-244): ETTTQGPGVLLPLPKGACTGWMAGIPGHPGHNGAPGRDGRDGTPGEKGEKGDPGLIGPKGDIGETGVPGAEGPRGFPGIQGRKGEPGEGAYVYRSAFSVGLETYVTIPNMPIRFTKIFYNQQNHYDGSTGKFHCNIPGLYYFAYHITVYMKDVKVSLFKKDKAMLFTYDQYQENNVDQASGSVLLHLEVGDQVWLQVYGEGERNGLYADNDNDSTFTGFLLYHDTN
Kind of assay: Bond between adiponectin immobilized onto a microplate and biotin-tagged peptide, enzyme immunoassay (HRP-tagged streptavidin, TMB). In kind it is binding. The settings on record: Example 2, FIG. 4; for absorbance at 450 nm: 1 mM peptide with C-terminal lysine tagged with biotin, compared with peptide of SEQ ID NO. 17 (Comparative Example 2); for bindability with adiponectin: conclusion from absorbance. The protocol: As described below, the bond between adiponectin immobilized onto a microplate and each of peptides tagged with biotin (biotin-tagged peptide) was measured by using enzyme immunoassay.
First, peptides were prepared in such a manner that lysine was added to the C-terminal of each of peptides having amino-acid sequences represented by SEQ ID NOs: 14 and 15. Then, the amino group of a lysine side chain of each of the peptides thus prepared was tagged with biotin so that biotin-tagged peptides were prepared.
5 μg/mL adiponectin (R&D Systems) prepared with PBS was dispensed to wells of a 96-well microplate in an amount of 100 μL per well. Then, the peptides were incubated for 1 hour at 37° C. Adiponectin was thus immobilized in the wells. In order to inhibit nonspecific binding, a blocking solution (Protein-Free Blocking Buffer, PIERCE) was then added to the wells in an amount of 300 μL per well. Then, the peptides were incubated for 2 hours at room temperature. Then, the wells were washed three times with PBST (PBS containing 0.1% (v/v) Tween 20). Then, 1 mM biotin-tagged peptide was added to the wells in an amount of 100 μL per well. Then, the peptides were incubated for 1 hour at room temperature. Then, the wells were washed with PBST again.
Then, HRP-tagged streptavidin (R&D Systems) diluted with 200 parts of the blocking solution (Protein-Free Blocking Buffer, PIERCE) was added to the well in an amount of 100 μL per well. Then, the streptavidin was incubated for 1 hour at room temperature. Then, the wells were washed with PBST. Then, TMB (tetramethylbenzidine) was added to the wells in an amount of 100 μL per well so that they react with each other for 20 minutes. Then, the reaction was stopped by adding 1 M of HCL to the wells in an amount of 100 μL per well. Then, an absorbance at 450 nm was measured by use of a microplate reader (Bio-Rad).
The bond between a peptide having the amino-acid sequence represented by SEQ ID NO. 17 and adiponectin as in Example 2.

Assay [2] deals with T1, adiponectin. The experiment in a line: Bond between peptide spot-synthesized on cellulose membrane and adiponectin, sandwich enzyme immunoassay (HRP-tagged anti-adiponectin antibody, Amplex Red fluorescence). The settings on record: Example 3, FIG. 5; for bindability with adiponectin: conclusion from fluorescent intensity; for fluorescent intensity in the synthesis spot: peptides with conservative substitution compared with parent peptides SEQ ID NOs: 8 and 9. In kind it is binding. An excerpt: In order to identify an amino-acid sequence having bindability with adiponectin, a peptide was synthesized on a cellulose membrane by use of a peptide synthesis device (Model MultiPep RS (Intavis AG)) utilizing a Fmoc-based peptide spot synthesis.
Immobilized on the cellulose membrane was polyethylene glycol having a terminal modified with an amino group. An Fmoc amino acid was bound with the amino group by using DIC (diisopropylcarbodiimide)/HOBt (hydroxybenzotriazole). After that, Fmoc was removed.
The cycle of the removal of Fmoc and the subsequent binding was repeated to synthesis a peptide. Then, N-terminals and side chains of all the peptides were deprotected. Thereby, peptides consisting of amino-acid sequences represented by SEQ. ID NOs: 1 to 15 were obtained.
The sandwich technique which is one of enzyme immunoassays was performed to measure the bond between each of the peptides thus synthesized and adiponectin.
First, a cellulose membrane was soaked in ethanol. Then, the cellulose membrane was continuously washed with phosphate buffered saline (PBS) (pH 7.4) so that ethanol contained in the cellulose membrane was replaced with PBS. In order that nonspecific binding is inhibited, the cellulose membrane was incubated overnight in a blocking solution (PBS containing 1% milk powder).
Then, the cellulose membrane was incubated for 1 hour in a blocking solution (PBS containing 1% milk powder) which contains 0.25 μg/mL human adiponectin (R&D Systems). Then, the cellulose membrane was washed with PBST (PBS containing 0.1% (v/v) Tween 20). Then, the cellulose membrane was incubated for 1 hour in a blocking solution containing […] anti-human adiponectin antibody (R&D Systems) which is tagged with HRP, and then washed with PBST five times.
After that, 100 μM fluorescent substrate (Amplex Red (Invitrogen)) containing 1 mM hydrogen peroxide was added to the cellulose membrane, and then they react with each other for 10 minutes. A fluorescent intensity in a synthesis spot was measured in such a manner that an […] wavelength of 595 nm of fluorescence from the fluorescent substrate was measured by a fluorescence imager (GE Healthcare) by exciting, with light of 540 nm, the fluorescent substrate in the synthesis spot. A bond strength of the peptide was worked out from the fluorescent intensity in the synthesis spot.
A peptide consist of the amino-acid sequence represented by SEQ ID NO. 16 was synthesized as in Example 1. Then, the bond between the synthesized peptide and adiponectin was measured as in Example 1.
Then, the bond between each of the synthesized peptides and adiponectin was measured as in Example 1.

As to “14 (ITPIHWVK; Adiponectin binding peptide) [compound 14]”, in the assay with adiponectin [1], the “absorbance at 450 nm” value is on record as “significantly higher in absorbance” and the bindability with adiponectin entry is “had the bindability with adiponectin”.
For “15 (ILLPLRIN; Adiponectin binding peptide) [compound 15]”, in the assay with adiponectin [1], the “absorbance at 450 nm” value was “significantly higher in absorbance” and the bindability with adiponectin entry is “had the bindability with adiponectin”.
As for “19 (KFATPKHR; Adiponectin binding peptide) [compound 19]”, in the assay with adiponectin [2], the bindability with adiponectin entry is given as “had the bindability with adiponectin”; the “fluorescent intensity in the synthesis spot” value was “close to those of the peptides having the amino-acid sequences represented by SEQ ID NOs: 8 and 9”.
In the case of “18 (MGSFVPY; Adiponectin binding peptide) [compound 18]”, in the assay with adiponectin [2], the bindability with adiponectin result is “had the bindability with adiponectin”; the “fluorescent intensity in the synthesis spot” value is “close to those of the peptides having the amino-acid sequences represented by SEQ ID NOs: 8 and 9”.

(Values after US8445633B2, “Peptide having bindability with adiponectin, analysis method utilizing same peptide, and analysis device utilizing same peptide” (Sharp Kabushiki Kaisha, priority 2010, dated 2013).)
